In patent US8653023B1, “Dual beneficial effect of dopamine enhancing and neuroprotective actions of PKC delta inhibitors for treatment of Parkinson's disease” (Iowa State University Research Foundation, Inc., priority 2006, dated 2014):

How the values were obtained:
[1] = system: tyrosine hydroxylase (TH); test: TH activity (DOPA levels after NSD-1015) in N27 cells; assay type: cell-based, rat; conditions: 2 mM NSD-1015, rottlerin 3 hr vs DMSO, PKCδ-DN vs LacZ
Experimental: Plasmid pPKCδ^K376R-V5 encodes the loss of function PKCδ-V5 epitope tagged mutant protein; K376R refers to the mutation of the lysine residue at position 376 to arginine in the catalytic site resulting in inactivation of the kinase. Plasmid pLacZ-V5 encodes the β-galactosidase protein alone with a V5-epitope and is used as a vector control. N27 cells stably expressing PKCδ^K376R-V5 (herein referred to as PKCδ-DN cells) and LacZ alone-expressing cells (LacZ cells) were cultured as described previously (Kitazawa et al., 2005). PKCδ-DN or LacZ expressing N27 cells were identified by immunostaining of the C-terminal V5 epitope on expressed proteins and were differentiated with cAMP analogs (e.g. dibutyral cAMP) prior to experiments. PKCδ-DN and LacZ were also transiently expressed in mouse primary mesencephalic neurons using an AMAXA® Nucleofector™ kit (AMAXA GmbH, Germany). As described above, primary mesencephalic neurons were prepared from the midbrain of 16-18-day-old mice embryos. After digestion with trypsin-EDTA-HBSS, the primary neurons were homogenously resuspended with transfection buffer provided with the kit to a final concentration of 4-5×10^6 neurons/100 μl and mixed with 1 μg plasmid DNA encoding either PKCδ-DN-V5 or LacZ-V5. […] Transfection efficiency was >75% as determined by immunostaining of V5-expression. […]

N27 cells = test: Cellular DA and DOPAC levels in N27 cells (HPLC-EC); assay type: cell-based, rat; conditions: N27 cells; rottlerin vs vehicle, PKCδ-DN vs LacZ
Experimental: (§1) PC12 cells, differentiated N27 dopaminergic cells and primary mesencephalic neurons were exposed to 1-10 μM rottlerin for the duration of the experiment. DMSO (0.01%) was used as vehicle control. PKCδ-DN- and Lac Z-expressing N27 cells were only treated with 0.01% DMSO. […] Untreated or vehicle treated cells were used as control samples.
DA and DOPAC levels in PC12, N27 cells and in brain striatal tissues were determined by high-performance liquid chromatography with electrochemical detection (HPLC-EC); samples were prepared as described previously (Kitazawa et al., 2001). The DA and DOPAC levels were measured as pg/mg protein and expressed as percent of control.

[2] = system: tyrosine hydroxylase (TH); test: TH phosphorylation in N27 cells (Western blot, immunofluorescence); assay type: cell-based, rat
Experimental: as §1
Cell and brain lysates containing equal amounts of protein were loaded in each lane and separated on a 10-12% SDS-PAGE gel as described previously (Kaul et al., 2003). After the separation, proteins were transferred to nitrocellulose membrane, and nonspecific binding sites were blocked by treating with 5% nonfat dry milk powder. The membranes were then treated with primary antibodies directed against PKCδ (rabbit polyclonal or mouse monoclonal, 1:2000 dilution), TH (rabbit polyclonal or mouse monoclonal, 1:1000), phospho TH-ser40 (rabbit polyclonal, 1:1000), phospho TH-ser31 TH (rabbit polyclonal, 1:1000), or PP2A (mouse monoclonal, 1:1000). The primary antibody treatments were followed by treatment with secondary HRP-conjugated anti-rabbit or anti-mouse IgG (1:2000) for 1 hr at RT. Secondary antibody-bound proteins were detected using Amersham's ECL chemiluminescence kit. To confirm equal protein loading, blots were reprobed with a β-actin antibody (1:5000 dilution). Western blot images were captured with a Kodak 2000 MM imaging system and data were analyzed using 1D Kodak imaging analysis software.
Immunostaining of PKCδ, TH, Ser40 P-TH and Ser31 P-TH was performed in PC12, N27 and primary mesencephalic neurons. Cells were grown on poly-L-Lysine-coated glass cover slips. After treatment, the cells were fixed with 4% paraformaldehyde and processed for immunohistochemical staining. […] Then the coverslips containing stained cells were washed with PBS, mounted on a slide, and viewed under a Nikon inverted fluorescence microscope (Model TE-2000U); images were captured with a SPOT digital camera (Diagnostic Instruments, Sterling Heights, Mich.).

[3] = system: tyrosine hydroxylase (TH); test: TH-ser40 phosphorylation in primary mesencephalic neurons (immunofluorescence); assay type: cell-based, mouse; conditions: primary neurons, 24 hr post-transfection
Experimental: PC12 and N27 cells were cultured as described earlier (Anantharam et al., 2002; Kaul et al., 2003). Briefly, cells were grown in RPMI 1640 medium containing 10% fetal bovine serum, 2 mM L-glutamine, 50 units of penicillin, and 50 μg/ml streptomycin. Cells were maintained in a humidified atmosphere of 5% CO2 at 37° C. N27 cells were differentiated with 2 mM dibutyryl cAMP for 3-5 days and then used for experiments described below. Primary mesencephalic neuronal cultures were prepared from the ventral mesencephalon of gestational 16-18-day-old mice embryos as described previously (Yang et al., 2004). Mesencephalic tissues were dissected and maintained in ice-cold Ca^2+-free HESS and then dissociated in HBSS solution containing trypsin-EDTA (0.25%) for 20 min at 37° C. The dissociated cells were then plated at equal density (0.5×10^6 cells) in 30-mm-diameter tissue culture wells precoated with poly-L-lysine (1 mg/ml). […]
Plasmid pPKCδ^K376R-V5 encodes the loss of function PKCδ-V5 epitope tagged mutant protein; K376R refers to the mutation of the lysine residue at position 376 to arginine in the catalytic site resulting in inactivation of the kinase. […] Transfection efficiency was >75% as determined by immunostaining of V5-expression. […]

PP2A = PP2A phosphatase activity in N27 cells (Serine/Threonine phosphatase assay kit); assay type: cell-based, rat; conditions: rottlerin vs DMSO, PKCδ-DN vs LacZ
Experimental: To determine PP2A phosphatase activity, we used the Serine/Threonine phosphatase assay kit from Promega. Briefly, N27 cells and substantia nigral tissue from mouse brain were homogenized in lysis buffer (25 mM Tris-HCl, 10 mM β-mercaptoethanol, 2 mM EDTA, protease inhibitor) supplied with the kit. After centrifugation, the supernatants were used for the assay. PP2A activity was determined by measuring the amount of free phosphate generated in a reaction by measuring the absorbance of a molybdate:malachite green: phosphate complex at 600 nm using the Spectramax plate reader (Molecular Devices). The effective range for the detection of phosphate released in this assay is 100-4,000 pmol of phosphate.

B1: PKCδ-DN: loss of function PKCδ-V5 epitope tagged mutant protein, lysine 376 to arginine, kinase inactive (protein, UniProt P28867 1-674, looked up, variant K376R)
chain: MAPFLRISFNSYELGSLQVEDEASQPFCAVKMKEALSTERGKTLVQKKPTMYPEWKTTFDAHIYEGRVIQIVLMRAAEDPVSEVTVGVSVLAERCKKNNGKAEFWLDLQPQAKVLMCVQYFLEDGDCKQSMRSEEEAKFPTMNRRGAIKQAKIHYIKNHEFIATFFGQPTFCSVCKEFVWGLNKQGYKCRQCNAAIHKKCIDKIIGRCTGTATNSRDTIFQKERFNIDMPHRFKVYNYMSPTFCDHCGSLLWGLVKQGLKCEDCGMNVHHKCREKVANLCGINQKLLAEALNQVTQRSSRKLDTTESVGIYQGFEKKPEVSGSDILDNNGTYGKIWEGSTRCTLENFTFQKVLGKGSFGKVLLAELKGKDKYFAIRCLKKDVVLIDDDVECTMVEKRVLALAWESPFLTHLICTFQTKDHLFFVMEFLNGGDLMFHIQDKGRFELYRATFYAAEIICGLQFLHSKGIIYRDLKLDNVMLDRDGHIKIADFGMCKENIFGEGRASTFCGTPDYIAPEILQGLKYSFSVDWWSFGVLLYEMLIGQSPFHGDDEDELFESIRVDTPHYPRWITKESKDIMEKLFERDPDKRLGVTGNIRIHPFFKTINWSLLEKRKVEPPFKPKVKSPSDYSNFDPEFLNEKPQLSFSDKNLIDSMDQEAFHGFSFVNPKFEQFLDI
modifications: full-length V5 epitope tag
[1]
  TH activity: 2539±307.3 pg DOPA/10^6 cells/hr
N27 cells
  DA level: 4806±373 pg/μg protein
  DOPAC levels: 2783±968.31 pg/μg protein
  increase in DA level: 4 fold
  increase in DOPAC levels: 3 fold
[2]; N27 cells
  THser31 phosphorylation level: unaltered
  level of total TH: unaltered
[2]; N27 cells stably expressing PKCδ-DN
  fluorescent intensity of TH-ser40 immunostaining, increase versus Lac-Z: 2.5 fold
[3]
  fluorescence of TH-ser40 immunostaining versus Lac-Z expressing neurons: about 2.5 times
PP2A
  reduction of PP2A activity: 56%
